{"source": "the DeepSol protein solubility set", "data": [{"assay": "soluble on expression in E. coli; label from the status in PepcDB or PDB records", "values": [{"sequence": "MGSDKIHHHHHHMEFIEFGYGTSTDENSLKAGAHAASDALKMMKKYSEKPNIVFLYSSPDYDPEEVLNGVKLILGNSVQIVGGSSKFQICGNKFLENGVSVGILGSKYFNTGMGVGLGISINPKESGKKAVKDAVENLGMLPKLLYVITDFCKCEEQVLKGIIEELGVTIPIFGGVSSDDFEFEHTYQYGNDVYLDSIVCVAFGGDIVPKISYNNYEYGENSGKLENIITKSEKRSIEEIGNISAVKRYIEISGYKGTVNELEKDPEFYLSHPLGILDTTGDIHLKGPISIKNKKLITGSNISNSNELKIENIDKNAIKNIFETNTSVLNNTQPHYEPALTFCNISSFLSEINPDEIEKLIEKSDINPFFGSSTFGEISLKKYGNYSMSMCSFAPDLVTISAKEGIHMFTKHPATKETLIKIHELGGSVKVEELAKSLGIHRRSAYDRIDPLLKYGFIEKDQAVIKITEFGKLLLKFEF", "soluble on expression in E. coli": "not soluble"}, {"sequence": "MGSDKIHHHHHHMEKSEEKEIICRMFNSPLPHPSQNHLLAALPAMELGDLIPHLELIHMRAGDILCEAGDQLPYAYFPASAIISLHYILENGASSEIANVGREGMLGVSLFMGGETSSNWATVQIPGFAYRLKAAFLSQELKRGGQLQWILLRYSQALITQIAQIGVCNRYHTIEQQLCRWFLLTLDRLDSSELSMTQELIANALGVSRESVAGVAGKLQGRGIIRYQRGHITVLNRTGLETGACECYETIKKEFDDALDDVRKPTLHQGDQSSKTLPLL", "soluble on expression in E. coli": "not soluble"}, {"sequence": "MGSDKIHHHHHHMEKVLEIRDLKVYFDLTEGTVKAVDGVSFDIRRGEILGLVGESGCGKSVTAQSILRILPKSARIVNGEIVFHRNGKTLDLTRLDPEGEEIRDIRGKDISMIFQEPMASFSPVYTVGAQMIEAILLHENVSKEEARKRVVEMLKKVKIPNAEKVVDMYPFELSGGMLQRCMIAMAMSLNPTLLLADEPTTALDVTIQAQILYLMKELQKEYHSSILLITHDMGVVAQMADRVAVMYLGNIVETAEVFELFKNPLHPYTQALLRSIPKIGIRKTRLETIKGMVPDPYNLPTGCRFHNRCEKFMKGLCDVKEPPEVEVKPGHKVKCFLYGGEKE", "soluble on expression in E. coli": "not soluble"}, {"sequence": "MGSDKIHHHHHHMELPVVVQQALGDNAPGVSFRSVSQIDTGHLLRMVLLSDDQGNLQAICRRNDMLDLEALNKRLGRDLRMMQRREQVRVRQKAGLQELPALPSLTGWPTVVDRRVDELEAVALELGEQDLGLMMPAEDFRQLTAKAARHDFAVDTANISVNLDNHAADRDQLHSAIKRFTGLRIQQRLEDTLELPPLPETAQRIIHLRVNPNAVMGDLVDVVESDPSLAAQVVSWASSSFYAAAGRVHSVHDAVSRVLGFDLVMNLAMGLALGRALKHPQDHPDGYVDYWQQAIWQAQSAGILASMMPRGQRPLFGLAYLAGLLHNFGHLVLAQVFPPHFKLVCRSLEVSPHIDSSVIEHYLLGITREQIAAQLMENWGMPDEVTLAIRYQKNPAYDGPHNVYARLLWLGRQLLTERGVALGAGESATQAVYDELGLDRELVQEQFDELVRRKDSIMAMAGMMSQGG", "soluble on expression in E. coli": "not soluble"}, {"sequence": "MGSDKIHHHHHHMELVSVKRIWEQGEHNAFTDLVLYQGTLFCVFREGSAHVSPDGALRILRSHDAGETWQSVALLTSAHADLRDGKLIEFRGELLLLGGGTQHDKSGLQSYLWRSKDGVHWSEPQAVADKGYWLWRLTEHQDALYGVGYRAGPDGDTRLYKSDDSVEFTPWMPVFNNQGYVNESSLVFHQGSCFCLLRRDPVWSDEFLGLLGHSLSPFKQWTWQTLDKRIGGPVLFVYQSRLMAVVRLYEGDIRTALVEINQDTGQLHEWLTLPSQGDTSYAGIVLDGDDLLVSYYSSHEQAMVSDLERSDTQDDKAQDKFKTMIYFAKIKLGQN", "soluble on expression in E. coli": "not soluble"}, {"sequence": "MGSDKIHHHHHHMENLTLKGKVILEGIIELETGMHIGGTKETLKIGGTDNPVIRDAFGRILIPGSSLKGKIRALLERKDGKYKEDGRGNYLPHDCGECEICKIFGPHDSKNIKEPVRVIVRDAYLQPEENKKDYDYLEIKVENTIDRLKGTTIKGGIRNMERVVAGSKFKFEVVFNIYKESDKELIKKFIEGMKLLEDDYLGGSGSRGYGKIKFRDIKLICKPKEYYEGNENSKKESDEVESLNELESELDKIWGGINFN", "soluble on expression in E. coli": "not soluble"}, {"sequence": "MGSDKIHHHHHHMENRITLRHLEAFRAIMVRKSVTGAAEMLEVTQPVVTRLIADLEERIALTLFTRTKGRLVPTPEAALLVKDVEQSLLSIERIANAATNIKSLKMGRLEIAASPNMALSFLPRAINSFTLAHPEAHVSMRMHSSPTVLDMVQRDQCDLGFAMFPARSTKSGNSETLVSAKMVAVVPKTHALATKRTLRPEHFEGERFISMMPLMESRMRIDSLMLSHGVRRHVNCETQTSAAVLQLVEAGVGISIIDPLTACGYTGTGVKFLNFEPVIRNDYSIVISQRNSSTLILKPFIDHAKREILNMVPAHLLIRS", "soluble on expression in E. coli": "not soluble"}]}]}
